The record followed here is US20150087814A1.

In one assay the target is FcγRIIIa-F158 (UniProt P08637). In words: SPR (Biacore T100), antibody captured on protein A chip, receptor injected as analyte, 1:1 steady-state fit. (In general: Surface plasmon resonance follows binding to a sensor surface in real time, without labels.)
The next assay deals with FcγRIIb (UniProt P31994). In words: SPR (Biacore T100), antibody captured on protein A chip, receptor injected as analyte.
FcγRIIb, sequence (P31994 46-217 limits assumed): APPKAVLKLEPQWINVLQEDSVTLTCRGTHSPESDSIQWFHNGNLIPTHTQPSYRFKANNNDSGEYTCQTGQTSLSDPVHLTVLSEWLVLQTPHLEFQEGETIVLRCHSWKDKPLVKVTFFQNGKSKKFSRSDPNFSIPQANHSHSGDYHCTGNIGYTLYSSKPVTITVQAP

FcγRIIIa-F158, sequence (P08637 17-208 limits assumed): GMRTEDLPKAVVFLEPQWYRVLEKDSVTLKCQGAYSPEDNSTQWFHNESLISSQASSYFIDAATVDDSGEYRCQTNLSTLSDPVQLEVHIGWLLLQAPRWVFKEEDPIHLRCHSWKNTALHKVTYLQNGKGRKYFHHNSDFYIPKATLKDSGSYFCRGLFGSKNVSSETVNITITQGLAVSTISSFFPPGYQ

With “nonfucosylated G2 glycoform of rituximab (10) (antibody)”, the Kd (as a rule, a measure of binding affinity in units of concentration) in the assay with FcγRIIIa-F158 worked out at 123 nM; with FcγRIIb it was 2300 nM.
